Three molecules from PMC8604404, “Kinesin-binding protein remodels the kinesin motor to prevent microtubule binding” (Science Advances, 2021) can be followed below.

Substitutions are numbered along the chain they refer to.

To fix the notation:
T1: Kinesin-binding protein (KIFBP), wild type (UniProt Q96EK5 1-621)
T1 construct: also called KIFBP-WT; WT-KIFBP; source: E. coli BL21-DE3, purified (glutathione-Sepharose, PreScission cleavage, Superdex 200)
T1 sequence (looked up): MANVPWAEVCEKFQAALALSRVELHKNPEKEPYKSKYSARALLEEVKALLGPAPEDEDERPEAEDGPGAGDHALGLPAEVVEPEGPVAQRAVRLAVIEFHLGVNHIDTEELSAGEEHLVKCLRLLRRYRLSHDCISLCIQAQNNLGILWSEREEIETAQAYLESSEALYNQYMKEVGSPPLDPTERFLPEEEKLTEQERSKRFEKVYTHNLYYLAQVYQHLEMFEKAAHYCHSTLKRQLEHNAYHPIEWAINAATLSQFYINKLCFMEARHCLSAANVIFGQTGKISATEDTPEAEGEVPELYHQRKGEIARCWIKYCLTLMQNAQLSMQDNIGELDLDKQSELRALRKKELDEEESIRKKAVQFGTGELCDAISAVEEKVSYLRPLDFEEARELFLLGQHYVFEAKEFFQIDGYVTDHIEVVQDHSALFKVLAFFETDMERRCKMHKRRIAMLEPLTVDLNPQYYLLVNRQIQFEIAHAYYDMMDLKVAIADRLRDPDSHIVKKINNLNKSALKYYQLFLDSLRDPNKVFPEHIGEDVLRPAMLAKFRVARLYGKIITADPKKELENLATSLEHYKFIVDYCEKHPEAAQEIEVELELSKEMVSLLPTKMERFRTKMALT

B1: His6-KIF15-N375 (KIF15 motor domain, amino acids 1 to 375) (domain or fragment, human, UniProt Q9NS87 1-375, looked up)
chain: MAPGCKTELRSVTNGQSNQPSNEGDAIKVFVRIRPPAERSGSADGEQNLCLSVLSSTSLRLHSNPEPKTFTFDHVADVDTTQESVFATVAKSIVESCMSGYNGTIFAYGQTGSGKTFTMMGPSESDNFSHNLRGVIPRSFEYLFSLIDREKEKAGAGKSFLCKCSFIEIYNEQIYDLLDSASAGLYLREHIKKGVFVVGAVEQVVTSAAEAYQVLSGGWRNRRVASTSMNRESSRSHAVFTITIESMEKSNEIVNIRTSLLNLVDLAGSERQKDTHAEGMRLKEAGNINRSLSCLGQVITALVDVGNGKQRHVCYRDSKLTFLLRDSLGGNAKTAIIANVHPGSRCFGETLSTLNFAQRAKLIKNKAVVNEDTQG
notes: No cleavage of the tag is described; also called KIF15 (1 to 375); source: E. coli BL21-DE3, purified (Ni-NTA, Superdex 200)
B2: His6-KIF18A-N363 (KIF18A motor domain, amino acids 1 to 363) (domain or fragment, human, UniProt Q8NI77 1-363, looked up)
chain: MSVTEEDLCHHMKVVVRVRPENTKEKAAGFHKVVHVVDKHILVFDPKQEEVSFFHGKKTTNQNVIKKQNKDLKFVFDAVFDETSTQSEVFEHTTKPILRSFLNGYNCTVLAYGATGAGKTHTMLGSADEPGVMYLTMLHLYKCMDEIKEEKICSTAVSYLEVYNEQIRDLLVNSGPLAVREDTQKGVVVHGLTLHQPKSSEEILHLLDNGNKNRTQHPTDMNATSSRSHAVFQIYLRQQDKTASINQNVRIAKMSLIDLAGSERASTSGAKGTRFVEGTNINRSLLALGNVINALADSKRKNQHIPYRNSKLTRLLKDSLGGNCQTIMIAAVSPSSVFYDDTYNTLKYANRAKDIKSSLKSNV
notes: No cleavage of the tag is described; also called KIF18A (1-363); source: E. coli BL21-DE3, purified (Ni-NTA, Superdex 200)
B3: KIFBP-L14^m (Loop-14 mutant of KIFBP) (natural protein, UniProt Q96EK5 1-621, looked up)
chain: T1 sequence (looked up) with D460A, L461A, N462A, P463A, Q464A, Y465A
notes: The methods tell the construction of mCherry-KIFBP-L14^m only, not of GST-KIFBP-L14^m; also called GST-KIFBP-L14^m; source: E. coli BL21-DE3, purified (glutathione-Sepharose, PreScission cleavage, Superdex 200)

Holding throughout (conditions): both partners purified
The target in assay [1] is T1, Kinesin-binding protein (KIFBP), wild …. Briefly: SEC; kinesin motor domain mixed with equimolar KIFBP, Superose 6, 10 mM K-Hepes pH 7.7, 50 mM KCl, 1 mM DTT, 0.2 mM MgATP; fractions analysed by SDS-PAGE.
The target is the same in assay [2]. Kind of assay: pull-down; His6-kinesin motor domain immobilised on Ni-NTA agarose, 20 ug KIFBP protein or GST in 200 ul, 10 mM Hepes pH 7.4, 50 mM KCl, 10 mM imidazole, 30 min at 4°C; Coomassie gel, ratio of KIFBP to kinesin in the pellet.
For assay [3], the target named is B1. The description is as above.

Regarding B1, the binding result in assay [1] is “binds”. As to B2, the binding result in assay [2] is listed as “binds”. On to B3, for which, in assay [3], the “fold reduction in binding against KIFBP-WT” value worked out at 2 fold.
